Substrate in data set [1]: CC(=O)c1ccc[n+]([C@@H]2O[C@H](COP(=O)([O-])OP(=O)(O)OC[C@H]3O[C@@H](n4cnc5c(N)ncnc54)[C@H](O)[C@@H]3O)[C@@H](O)[C@H]2O)c1
Nature of the data set: enzyme kinetics (Km), used as synthetic cofactor, lactate to pyruvate. In kind it is biochemical, Babesia orientalis. The conditions noted are these: varied: cofactor. An excerpt: enzyme kinetics (Km), used as synthetic cofactor, lactate to pyruvate on Babesia orientalis lactate dehydrogenase (BoLDH) | BoLDH catalyzes the conversion of lactate to pyruvate using synthetic APAD^+ instead of NAD^+ as a cofactor

Substrate in data set [2]: C[C@H](O)C(=O)O
Nature of the data set: purified protein. The conditions noted are these: NAD+.

Substrate in data set [3]: NC(=O)c1ccc[n+]([C@@H]2O[C@H](COP(=O)([O-])OP(=O)(O)OC[C@H]3O[C@@H](n4cnc5c(N)ncnc54)[C@H](O)[C@@H]3O)[C@@H](O)[C@H]2O)c1
Nature of the data set: purified protein. The conditions noted are these: varied: cofactor.

Substrate in data set [4]: CC(=O)C(=O)O
Put plainly: purified protein. In kind it is biochemical, Babesia orientalis. The settings on record: NADH.

Substrate in data set [5]: NC(=O)C1=CN([C@@H]2O[C@H](COP(=O)(O)OP(=O)(O)OC[C@H]3O[C@@H](n4cnc5c(N)ncnc54)[C@H](O)[C@@H]3O)[C@@H](O)[C@H]2O)C=CC1
Put plainly: purified protein. It is filed as biochemical, Babesia orientalis. The conditions noted are these: varied: cofactor.

This note sets out measurements from PMC8766848, “The Structural Basis of Babesia orientalis Lactate Dehydrogenase” (Frontiers in Cellular and Infection Microbiology, 2022).

B1: Babesia orientalis lactate dehydrogenase (BoLDH) (Babesia orientalis) (protein)
chain: MLKGFLSTMSPAVRRNKISLIGAGNIGGVMAYLAQLKELGDVVLFDIAPKLGEAKALDIMHANAIYDTAHKAIGTANYEDIADSDVCIITAGLAKLPNKKDEEWSRDDLVAPNSKIMFTIGDNIKKYAPNAFVICITNPLDVMVKMLLKATGFPKNKVVGMGGLLDSSRMCHYIADKLNVNPRYVHGSCIGGHGDSMIPLVNHVTVNGIPIQLFVERGDITQAELDKIAQRTIGSGMELVQLYGNGSAYFAPATAAIEMASAYLNDKKSVIVCSCYLEGEYGHSDVYLGTPAIIGANGIEKIITLKLSSEEQAKLDASVKEIMRLEALAG
notes: full-length ORF (330 residues), N-terminal His6 tag, recombinant rBoLDH
Regarding B1, the Km (as a rule, the concentration of substrate that gives half-maximal velocity) turned out to be 395 ± 49.9 µM in data set [1]; 166 ± 24.2 µM in the data set “purified protein [2]”; 493 ± 69.2 µM in the data set “purified protein [3]”; 102 ± 19.2 µM in the data set “purified protein [4]”; 126 ± 19.9 µM in “purified protein [5]”. Further, the kcat (as a rule, the maximal rate divided by the concentration of active sites) in data set [1] is 62.3 s⁻¹; in “purified protein [2]” it was 30.5 s⁻¹; in the data set “purified protein [3]”, 21.5 s⁻¹; in “purified protein [4]” it was 56.5 s⁻¹; in “purified protein [5]”, 115 s⁻¹. The kcat/Km – broadly, the second-order rate constant that governs catalysis at low substrate concentration – in data set [1] was 157000 M⁻¹ s⁻¹; in the data set “purified protein [2]” it was 184000 M⁻¹ s⁻¹; in the data set “purified protein [3]”, 43600 M⁻¹ s⁻¹; in “purified protein [4]”, 554000 M⁻¹ s⁻¹; in the data set “purified protein [5]” it was 913000 M⁻¹ s⁻¹.
